The target in data set [1] is T1, VboTA (Variovorax boronicumulans ω-transaminase) (Variovorax boronicumulans, UniProt Z9A1T7NCF1).
T1 construct: full length, 433 aa, C-terminal His-tag (pET21b, NdeI/XhoI), codon-optimised, E. coli BL21(DE3), Ni-NTA
In words: activity at varied substrate concentration. It is filed as biochemical. The following applies: substrate inhibition; pH 9, 30 °C.

Data set [2] relates to CC(C)C(N)CC(=O)O. As to the kind of experiment: purified protein. The following applies: 5.2 mM 2-oxoglutarate, 0.1 mM PLP, 100 mM potassium borate pH 9, 30 °C, donor 2-10 mM.
Source text: (§1) glutamate quantification, Lineweaver-Burk on VboTA (Variovorax boronicumulans ω-transaminase)
Data set [3] deals with CC(N)CC(=O)O. In words: purified protein. The following applies: 5.2 mM 2-oxoglutarate, 0.1 mM PLP, 100 mM potassium borate pH 9, 30 °C, donor 2-10 mM.
Source text: as §1
The test system of data set [4] is NC(CC(=O)O)Cc1ccccc1. In words: purified protein. The following applies: 5.2 mM 2-oxoglutarate, 0.1 mM PLP, 100 mM potassium borate pH 9, 30 °C, donor 2-10 mM.
Source text: as §1
Data set [5] deals with NC(CC(=O)O)c1ccccc1. In words: purified protein. The following applies: 5.2 mM 2-oxoglutarate, 0.1 mM PLP, 100 mM potassium borate pH 9, 30 °C, donor 2-10 mM, Km above tested range.
Source text: as §1
Data set [6] relates to O=C(O)CCC(=O)C(=O)O. As to the kind of experiment: purified protein. The following applies: 10 mM β-phenylalanine, 0.1 mM PLP, 100 mM potassium borate pH 9, 30 °C, 2-8 mM 2-oxoglutarate.
Source text: as §1

T1 sequence (Z9A1T7NCF1 1-433): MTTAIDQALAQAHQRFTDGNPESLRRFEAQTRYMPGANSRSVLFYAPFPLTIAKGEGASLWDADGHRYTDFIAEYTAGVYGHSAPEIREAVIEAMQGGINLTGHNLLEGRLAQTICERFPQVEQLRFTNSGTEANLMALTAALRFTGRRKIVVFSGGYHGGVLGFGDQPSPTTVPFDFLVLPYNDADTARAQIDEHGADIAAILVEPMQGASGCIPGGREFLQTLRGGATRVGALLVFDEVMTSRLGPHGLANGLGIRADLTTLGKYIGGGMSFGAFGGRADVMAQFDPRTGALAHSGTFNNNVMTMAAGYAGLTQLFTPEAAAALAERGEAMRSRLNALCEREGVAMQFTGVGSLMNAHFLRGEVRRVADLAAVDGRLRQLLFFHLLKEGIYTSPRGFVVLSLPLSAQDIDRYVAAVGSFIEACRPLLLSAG

On to `O=C(O)CCC(=O)C(=O)O` [2-Oxoglutaric acid], for which the “loss of activity at 20 mM” value in data set [1] is reported as ~ 70%.

In the case of “VboTA (Variovorax boronicumulans ω-transaminase) (Variovorax boronicumulans)”, the Km turned out to be 44.7 ± 1.2 mM in data set [2]; 4.4 ± 0.3 mM in data set [3]; 0.7 ± 0.2 mM in data set [4]; 24.7 ± 3.8 mM in data set [5]; 2.1 ± 0.4 mM in data set [6]. Also, the Vmax in data set [2] turned out to be 48.5 µmol/min; in data set [3] it was 1.4 µmol/min; in data set [4], 1.1 µmol/min; in data set [5] it was 20.5 µmol/min; in data set [6], 24.9 µmol/min. Also, the catalytic constant (kcat) worked out at 66.5 ± 7.1 s⁻¹ in data set [2]; 2 ± 0.2 s⁻¹ in data set [3]; 1.6 ± 0.07 s⁻¹ in data set [4]; 28.1 ± 3.3 s⁻¹ in data set [5]; 34.2 ± 2.7 s⁻¹ in data set [6]. Besides, the kcat/Km was determined as 1500 ± 200 M⁻¹ s⁻¹ in data set [2]; 450 ± 50 M⁻¹ s⁻¹ in data set [3]; 2200 ± 100 M⁻¹ s⁻¹ in data set [4]; 1100 ± 100 M⁻¹ s⁻¹ in data set [5]; 16200 ± 1300 M⁻¹ s⁻¹ in data set [6].

Source of the values: publication PMC9850050, “A transaminase with β-activity from Variovorax boronicumulans for the production of enantiopure β-amino acids” (Heliyon, 2022).
